Test results published in paper PMC9486808.
pKd: −log10 of the molar value. Read-outs that look alike come from different tables or passages of the source.

What was measured:
Assay in all cases: fluorescence polarisation
[1] = biological target: L2-FAM: Cyclo(Ac-…)LFAApa[…]-NH2
[2] = biological target: L4-FAM: Cyclo(Ac-…)pa[…]-NH2
[3] = biological target: S3-FAM: Cyclo(Ac-y…)pa[…]-NH2
[4] = biological target: S5-FAM: Cyclo(Ac-y…)pa[…]-NH2
[5] = biological target: L4-FAM: Cyclo(Ac-…)pa[…]-NH2; remark: listed apart in the source
[6] = biological target: S3-FAM: Cyclo(Ac-y…)pa[…]-NH2; remark: listed apart in the source
[7] = biological target: S5-FAM: Cyclo(Ac-y…)pa[…]-NH2; remark: listed apart in the source

Recombinant soluble trimeric H1 HA ectodomain of A/California/04/2009 (H1N1), fused to GCN4 trimeriz (domain or fragment)
pKd [1]: 8.62
pKd [2]: 8.96
pKd [3]: 8.89
pKd [4]: 9.00
pKd [5]: 9.22
pKd [6]: 9.10
pKd [7]: 9.22
